Target: the molecule itself
Test: crystal structure; FtPPDK 10 mg/mL co-crystallized with 20 mM PEP and 10 mM NADH, microbatch, 17% PEG 3350, 100 mM MOPS pH 7, 100 mM magnesium formate, 21 °C; PDB 5JVJ, two monomers in the ASU

B1: Pyruvate phosphate dikinase from Flaveria trinervia (C4-isoform) (enzyme, UniProt P22221 78-953, looked up)
chain: TAKKRVFTFGKGRSEGNRDMKSLLGGKGANLAEMSSIGLSVPPGLTISTEACEEYQQNGKSLPPGLWDEISEGLDYVQKEMSASLGDPSKPLLLSVRSGAAISMPGMMDTVLNLGLNDEVVAGLAGKSGARFAYDSYRRFLDMFGNVVMGIPHSLFDEKLEQMKAEKGIHLDTDLTAADLKDLVEKYKNVYVEAKGEKFPTDPKKQLELAVNAVFDSWDSPRANKYRSINQITGLKGTAVNIQSMVFGNMGNTSGTGVLFTRNPSTGEKKLYGEFLINAQGEDVVAGIRTPEDLGTMETCMPEAYKELVENCEILERHYKDMMDIEFTVQENRLWMLQCRTGKRTGKGAVRIAVDMVNEGLIDTRTAIKRVETQHLDQLLHPQFEDPSAYKSHVVATGLPASPGAAVGQVCFSAEDAETWHAQGKSAILVRTETSPEDVGGMHAAAGILTARGGMTSHAAVVARGWGKCCVSGCADIRVNDDMKIFTIGDRVIKEGDWLSLNGTTGEVILGKQLLAPPAMSNDLEIFMSWADQARRLKVMANADTPNDALTARNNGAQGIGLCRTEHMFFASDERIKAVRKMIMAVTPEQRKVALDLLLPYQRSDFEGIFRAMDGLPVTIRLLDPPLHEFLPEGDLEHIVNELAVDTGMSADEIYSKIENLSEVNPMLGFRGCRLGISYPELTEMQVRAIFQAAVSMTNQGVTVIPEIMVPLVGTPQELRHQISVIRGVAANVFAEMGVTLEYKVGTMIEIPRAALIAEEIGKEADFFSFGTNDLTQMTFGYSRDDVGKFLQIYLAQGILQHDPFEVIDQKGVGQLIKMATEKGRAANPSLKVGICGEHGGEPSSVAFFDGVGLDYVSCSPFRVPIARLAAAQVIV
notes: domains NBD aa 1-340, CD aa 380-515, PBD aa 535-874; Cloned into pET-16b with a histidine10 tag and a TEV site; Co-crystallized with PEP and NADH (5JVJ) or PEP and 2'-Br-dAppNHp (5JVL); also called FtPPDK; C4-PPDK
B1: binds.
